We go through two molecules from article doi:10.1101/2021.10.21.465316 (bioRxiv, 2021).

B1: Nogo B-receptor (NgBR) pseudo cis-prenyltransferase domain, residues 73-293, lacking residues 167-175 (domain or fragment)
chain: RGGSCLAAAHHRMRWRADGRSLEKLPVHMGLVITEVEQEPSFSDIASLVVWCMAVGISYISVYDHQGIFKRNNSRLMDEILKQQQELLGLDCSKDKDDQVLNCHLAVKVLSPEDGKADIVRAAQDFCQLVAQKQKRPTDLDVDTLASLLSSNGCPDPDLVLKFGPVDSTLGFLPWHIRLTEIVSLPSHLNISYEDFFSALRQYAACEQRLGK
B2: dehydrodolichyl diphosphate synthase (DHDDS), residues 1-333 (enzyme)
chain: MSWIKEGELSLWERFCANIIKAGPMPKHIAFIMDGNRRYAKKCQVERQEGHSQGFNKLAETLRWCLNLGILEVTVYAFSIENFKRSKSEVDGLMDLARQKFSRLMEEKEKLQKHGVCIRVLGDLHLLPLDLQELIAQAVQATKNYNKCFLNVCFAYTSRHEISNAVREMAWGVEQGLLDPSDISESLLDKCLYTNRSPHPDILIRTSGEVRLSDFLLWQTSHSCLVFQPVLWPEYTFWNLFEAILQFQMNHSVLQKARDMYAEERKRQQLERDQATVTEQLLREGLQASGDAQLRRTRLHKLSARREERVQGFLQALELKRADWLARLGTASA

The target of data set [1] is B2. In words: crystal structure.
The data set “crystal structure” concerns the molecule itself. Description: crystal structure.

For the molecule B1, in data set [1], the binding result is “binds”.

For the molecule B2, the binding result in “crystal structure” is recorded as “binds”.
